Experimental data as given in patent US20080261863A1, “Pegylation of Vasoactive Intestinal Peptide (Vip) / Pituitary Adenylate Cyclase Activating Peptide (Pacap) Receptor 2 (Vpac2) Agonists and Methods of Use” (priority 2004, published 2008).

Biological target: VPAC2 receptor (human) (UniProt P41587)
Assay: cell-based or functional assay

Sequence of VPAC2 receptor (human) (P41587 24-438): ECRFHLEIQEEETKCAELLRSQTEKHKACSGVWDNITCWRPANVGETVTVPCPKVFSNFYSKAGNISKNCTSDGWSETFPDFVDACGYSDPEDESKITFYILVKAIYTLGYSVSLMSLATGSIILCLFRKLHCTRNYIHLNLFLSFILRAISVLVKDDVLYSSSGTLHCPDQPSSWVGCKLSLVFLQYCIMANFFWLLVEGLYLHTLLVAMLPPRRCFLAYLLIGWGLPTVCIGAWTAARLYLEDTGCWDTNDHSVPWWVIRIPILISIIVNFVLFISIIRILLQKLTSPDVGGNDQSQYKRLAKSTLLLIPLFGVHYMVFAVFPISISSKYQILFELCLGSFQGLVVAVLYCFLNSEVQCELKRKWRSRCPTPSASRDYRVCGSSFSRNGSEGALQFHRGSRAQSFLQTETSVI

- EC50 (nM), cAMP SPA, VPAC2 agonist activity: 0.09 nM
Substance: PACAP-27 (from UniProt P18509 132-158) (peptide)
